Experimental data from patent US20140120625.

Biological target: FLPe (thermostable FLP variant) (UniProt P03870)
Assay: cell_activity

UniProt P03870, sequence (P03870 whole entry, change not shown): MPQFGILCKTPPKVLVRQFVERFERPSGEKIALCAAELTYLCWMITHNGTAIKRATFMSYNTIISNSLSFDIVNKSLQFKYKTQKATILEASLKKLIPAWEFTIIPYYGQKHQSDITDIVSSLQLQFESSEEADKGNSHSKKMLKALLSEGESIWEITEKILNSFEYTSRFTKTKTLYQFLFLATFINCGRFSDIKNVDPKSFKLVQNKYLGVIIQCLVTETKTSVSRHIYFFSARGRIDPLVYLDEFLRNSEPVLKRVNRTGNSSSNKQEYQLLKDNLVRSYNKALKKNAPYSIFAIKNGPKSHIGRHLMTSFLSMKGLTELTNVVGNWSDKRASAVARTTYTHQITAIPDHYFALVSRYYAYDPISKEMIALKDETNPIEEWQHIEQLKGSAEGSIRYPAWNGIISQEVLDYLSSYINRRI

| Sequence | binding signal (same assay, paired with FRT-F) | binding signal (simultaneous four-locus gene swapping frequency in A. niger M1146, FRT-F/FRT-F3 pair) |
| --- | --- | --- |
| TTGAAGTTCCTATTCCGAGTTCCTATTCTTCAAATAGTATAGGAACTTCA (double strand) [FRT-F3] | 3 fold vs FLP | – |
| TTGAAGTTCCTATTCCGAGTTCCTATTCTCTAGAAAGTATAGGAACTTC (double strand) [FRT-F] | – | 3 fold vs FLP |
